{
  "source": "paper PMC10397247",
  "binders": {"B1": {"name": "4H2948-AA (peptide)", "chain": "DKIAALKAKNAALEAEIAALEAENAALKG"}},
  "assay_in_all_cases": "two-hybrid library CCmax;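 note: natural log of median RNA to DNA barcode read ratio; higher means stronger binding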",
  "key": {"4H2948-AA": {"biological_target": "T1, 4H2948-AA", "T1 chain": "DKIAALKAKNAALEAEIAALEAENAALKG"}, "4H2991-AA": {"biological_target": "T2, 4H2991-AA", "T2 chain": "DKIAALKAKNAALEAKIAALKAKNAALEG", "details": "mean of both orientations"}, "4H3029-AA": {"biological_target": "T3, 4H3029-AA", "T3 chain": "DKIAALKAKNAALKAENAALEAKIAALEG", "details": "mean of both orientations"}, "4H3066-AA": {"biological_target": "T4, 4H3066-AA", "T4 chain": "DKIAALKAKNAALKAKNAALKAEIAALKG", "details": "mean of both orientations"}, "4H3102-AA": {"biological_target": "T5, 4H3102-AA", "T5 chain": "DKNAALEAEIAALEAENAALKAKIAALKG", "details": "mean of both orientations"}, "4H3121-AA": {"biological_target": "T6, 4H3121-AA", "T6 chain": "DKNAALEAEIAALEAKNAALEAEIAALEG", "details": "mean of both orientations"}, "4H3417-AA": {"biological_target": "T7, 4H3417-AA", "T7 chain": "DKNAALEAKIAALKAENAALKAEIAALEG", "details": "mean of both orientations"}, "4H3446-AA": {"biological_target": "T8, 4H3446-AA", "T8 chain": "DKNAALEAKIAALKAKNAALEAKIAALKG", "details": "mean of both orientations"}, "4H3591-AA": {"biological_target": "T9, 4H3591-AA", "T9 chain": "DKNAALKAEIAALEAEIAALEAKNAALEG", "details": "mean of both orientations"}, "4H3628-AA": {"biological_target": "T10, 4H3628-AA", "T10 chain": "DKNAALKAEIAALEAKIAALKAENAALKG", "details": "mean of both orientations"}, "4H3666-AA": {"biological_target": "T11, 4H3666-AA", "T11 chain": "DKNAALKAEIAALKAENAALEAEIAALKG", "details": "mean of both orientations"}, "4H3709-AA": {"biological_target": "T12, 4H3709-AA", "T12 chain": "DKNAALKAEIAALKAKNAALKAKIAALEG", "details": "mean of both orientations"}, "4H391-AA": {"biological_target": "T13, 4H391-AA", "T13 chain": "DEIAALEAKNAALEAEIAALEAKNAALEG"}, "4H3920-AA": {"biological_target": "T14, 4H3920-AA", "T14 chain": "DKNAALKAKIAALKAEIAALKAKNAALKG", "details": "mean of both orientations"}, "4H3939-AA": {"biological_target": "T15, 4H3939-AA", "T15 chain": "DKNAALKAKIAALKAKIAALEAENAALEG", "details": "mean of both orientations"}, "4H428-AA": {"biological_target": "T16, 4H428-AA", "T16 chain": "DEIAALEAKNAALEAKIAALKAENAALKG", "details": "mean of both orientations"}, "4H478-AA": {"biological_target": "T17, 4H478-AA", "T17 chain": "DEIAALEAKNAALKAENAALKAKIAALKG", "details": "mean of both orientations"}, "4H497-AA": {"biological_target": "T18, 4H497-AA", "T18 chain": "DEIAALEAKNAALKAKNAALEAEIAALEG", "details": "mean of both orientations"}, "4H656-AA": {"biological_target": "T19, 4H656-AA", "T19 chain": "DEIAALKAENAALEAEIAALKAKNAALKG", "details": "mean of both orientations"}, "4H675-AA": {"biological_target": "T20, 4H675-AA", "T20 chain": "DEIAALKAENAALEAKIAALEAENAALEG", "details": "mean of both orientations"}, "4H971-AA": {"biological_target": "T21, 4H971-AA", "T21 chain": "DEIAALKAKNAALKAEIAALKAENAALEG", "details": "mean of both orientations"}},
  "data": [
    {"binder": "B1", "values": [
      {"measurement": "interaction score", "setting": "4H2948-AA", "result": -0.0114},
      {"measurement": "interaction score", "setting": "4H2991-AA", "result": -0.169},
      {"measurement": "interaction score", "setting": "4H3029-AA", "result": -1.4},
      {"measurement": "interaction score", "setting": "4H3066-AA", "result": -1.57},
      {"measurement": "interaction score", "setting": "4H3102-AA", "result": 0.56},
      {"measurement": "interaction score", "setting": "4H3121-AA", "result": -1.15},
      {"measurement": "interaction score", "setting": "4H3417-AA", "result": 0.478},
      {"measurement": "interaction score", "setting": "4H3446-AA", "result": -0.524},
      {"measurement": "interaction score", "setting": "4H3591-AA", "result": -1.3},
      {"measurement": "interaction score", "setting": "4H3628-AA", "result": -0.855},
      {"measurement": "interaction score", "setting": "4H3666-AA", "result": -1.69},
      {"measurement": "interaction score", "setting": "4H3709-AA", "result": -1.17},
      {"measurement": "interaction score", "setting": "4H391-AA", "result": -1.39},
      {"measurement": "interaction score", "setting": "4H3920-AA", "result": -1.35},
      {"measurement": "interaction score", "setting": "4H3939-AA", "result": -1.77},
      {"measurement": "interaction score", "setting": "4H428-AA", "result": 1.95},
      {"measurement": "interaction score", "setting": "4H478-AA", "result": -1.62},
      {"measurement": "interaction score", "setting": "4H497-AA", "result": -1.54},
      {"measurement": "interaction score", "setting": "4H656-AA", "result": 0.924},
      {"measurement": "interaction score", "setting": "4H675-AA", "result": -0.414},
      {"measurement": "interaction score", "setting": "4H971-AA", "result": -0.608}
    ]}
  ]
}
